The results in this text go back to paper PMC5540112 (mAbs, 2017).

Numbering of substitutions follows the chain as printed.

Assay [1] concerns the target T1, Recombinant GPVI-Fc (extracellular domain of human GPVI fused to human IgG1 Fc domain) (Homo sapiens, UniProt Q9HCN6). The assay is described as follows: SPR.
Assay [2] concerns the target T1, Recombinant GPVI-Fc (extracellular …). Kind of assay: ELISA.

T1 sequence (Q9HCN6 21-267): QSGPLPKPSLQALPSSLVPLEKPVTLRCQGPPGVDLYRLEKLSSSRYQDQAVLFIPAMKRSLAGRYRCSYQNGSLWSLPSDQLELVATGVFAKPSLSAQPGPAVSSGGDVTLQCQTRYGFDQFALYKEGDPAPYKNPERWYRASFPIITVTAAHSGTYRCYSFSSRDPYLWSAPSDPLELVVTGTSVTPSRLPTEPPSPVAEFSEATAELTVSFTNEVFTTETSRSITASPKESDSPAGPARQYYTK

B1: Fab 9O12, Fab fragment of the mouse monoclonal IgG1,k 9O12 (Fab, V domains shown)
VH: QVQLQESGAELVKPGASVKMSCKASGYTFTSYNMHWVKQTPGQGLEWIGGIYPGNGDTSFNQKFKGKATLTADKSSRTAYMQLSSLTSEDSAVYYCARGTVVGDWYFDVWGAGTTLTVSS
VL: DVLMTQTPLSLPVSLGDQASISCRSSQSLENSNGNTYLNWYLQKPGQSPQLLIYRVSNRFSGVLDRFSGSGSGTDFTLKISRVEAEDLGVYFCLQLTHVPWTFGGGTKLEIK
As for B1, the equilibrium dissociation constant (Kd) in assay [1] is 17 nM.

B2: ACT005, humanized anti-GPVI Fab (VL2b + VH2) (Fab, V domains shown)
VH: EVQLVESGGGLVQPGGSLRLSCAASGYTFTSYNMHWVRQAPGKGLEWVGGIYPGNGDTSYNADFKRRFTFSLDTSKSTAYLQMNSLRAEDTAVYYCARGTVVGDWYFDVWGQGTLVTVSS
VL: DIQMTQSPSSLSASVGDRVTITCSASQSLENSNGNTYLNWYQQKPGKAPKLLIYRVSNRFSGVPSRFSGSGSGTDFTLTISSLQPEDFATYYCLQLTHVPWTFGQGTKVEIK
B2: the Kd in assay [1] is < 25 nM.

B3: ACT016, humanized anti-GPVI Fab (VL8b + VH2) (Fab, V domains shown)
VH: B2 VH
VL: B2 VL with S24R, A25S, L78F, F88I, K112T
For B3, in assay [1], the Kd is < 25 nM.

B4: ACT017, humanized anti-GPVI Fab (VL8b + VH3) (Fab, V domains shown)
VH: QVQLVQSGAEVKKPGASVKVSCKASGYTFTSYNMHWVRQAPGQGLEWMGGIYPGNGDTSYNQKFQGRVTMTRDTSTSTVYMELSSLRSEDTAVYYCARGTVVGDWYFDVWGQGTLVTVSS
VL: B2 VL with S24R, A25S, L78F, F88I, K112T
Take B4: the Kd in assay [1] amounted to 4.1 nM.

B5: ACT006, humanized anti-GPVI Fab (VL2b + VH3) (Fab, V domains shown)
VH: B4 VH
VL: B2 VL
In the case of B5, the Kd in assay [1] was < 8 nM.

B6: ACT010, humanized anti-GPVI Fab (VL3b + VH3) (Fab, V domains shown)
VH: B4 VH
VL: DIVMTQTPLSLSVSVGERVTITCKSSQSLENSNGNTYLNWYLQKPGQAPQLLIYRVSNRFSGVPDRFSGSGSGTDFTLTISRVEAEDVGVYYCLQLTHVPWTFGQGTKLEIK
As to B6, in assay [2], the binding result is “binds”.
